No end group written: not given here.

What all share (assay): Kinase Profiling Assay
What all share (format): biochemical
Conditions in all cases: peptide 100 μM

One experiment has as its target T1, NEK6(h) (Homo sapiens, UniProt Q9HC98).
T1 construct: purchased Millipore
The procedure:
(§1) Every kinase activity measurement was conducted in duplicate.
(§2) Specifically, in these assays, a positively charged substrate is phosphorylated with a radiolabeled phosphate group from an ATP if the kinase is not inhibited by an inhibitor peptide. The positively charged substrate then is attracted to a negatively charged filter membrane, quantified with a scintillation counter, and compared to a 100% activity control.
(§3) In addition to determining the IC50 of the compound, the specificity of MK2 inhibitory peptides was assessed by examining activities of all 266 human kinases available for testing in the Millipore kinase profiling service (Table 1).

Another experiment has as its target T2, Itk(h) (Homo sapiens, UniProt Q08881).
T2 construct: purchased Millipore
T2 sequence (Q08881 1-620): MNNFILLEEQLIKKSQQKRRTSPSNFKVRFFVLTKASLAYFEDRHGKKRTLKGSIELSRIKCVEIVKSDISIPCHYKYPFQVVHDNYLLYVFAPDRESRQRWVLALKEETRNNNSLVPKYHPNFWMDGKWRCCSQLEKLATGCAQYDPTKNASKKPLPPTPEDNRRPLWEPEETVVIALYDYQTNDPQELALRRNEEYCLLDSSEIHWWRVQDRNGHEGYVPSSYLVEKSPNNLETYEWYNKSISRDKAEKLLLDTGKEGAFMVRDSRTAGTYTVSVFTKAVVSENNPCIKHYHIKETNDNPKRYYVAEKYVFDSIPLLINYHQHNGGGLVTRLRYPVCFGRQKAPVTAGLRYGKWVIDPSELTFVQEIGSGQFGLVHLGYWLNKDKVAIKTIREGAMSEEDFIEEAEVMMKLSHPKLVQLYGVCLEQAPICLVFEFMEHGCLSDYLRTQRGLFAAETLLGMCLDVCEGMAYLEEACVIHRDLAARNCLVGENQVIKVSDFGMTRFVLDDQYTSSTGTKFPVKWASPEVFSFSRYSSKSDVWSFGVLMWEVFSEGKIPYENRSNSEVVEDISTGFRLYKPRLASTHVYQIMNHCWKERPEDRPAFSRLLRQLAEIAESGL
As for the experimental part: as §1, §2, §3

A further experiment addresses T3, IRAK4(h) (Homo sapiens, UniProt Q9NWZ3).
T3 construct: purchased Millipore
T3 sequence (Q9NWZ3 1-460): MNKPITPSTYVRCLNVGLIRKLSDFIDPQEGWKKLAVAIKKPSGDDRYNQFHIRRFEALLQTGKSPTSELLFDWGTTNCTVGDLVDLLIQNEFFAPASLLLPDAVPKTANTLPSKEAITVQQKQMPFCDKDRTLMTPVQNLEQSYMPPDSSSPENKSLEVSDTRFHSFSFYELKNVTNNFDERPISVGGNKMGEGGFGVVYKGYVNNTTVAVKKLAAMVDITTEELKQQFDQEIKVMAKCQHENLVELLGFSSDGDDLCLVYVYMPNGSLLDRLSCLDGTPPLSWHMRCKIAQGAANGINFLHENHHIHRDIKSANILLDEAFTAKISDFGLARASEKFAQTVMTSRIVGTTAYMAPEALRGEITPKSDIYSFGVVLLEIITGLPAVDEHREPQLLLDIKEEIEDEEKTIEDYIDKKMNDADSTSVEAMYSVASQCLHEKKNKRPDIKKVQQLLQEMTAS
As for the experimental part:
as §1, §2, §3

The target in another experiment is T4, GSK3β(h) (Homo sapiens, UniProt P49841).
T4 construct: purchased Millipore
T4 sequence (P49841 whole entry): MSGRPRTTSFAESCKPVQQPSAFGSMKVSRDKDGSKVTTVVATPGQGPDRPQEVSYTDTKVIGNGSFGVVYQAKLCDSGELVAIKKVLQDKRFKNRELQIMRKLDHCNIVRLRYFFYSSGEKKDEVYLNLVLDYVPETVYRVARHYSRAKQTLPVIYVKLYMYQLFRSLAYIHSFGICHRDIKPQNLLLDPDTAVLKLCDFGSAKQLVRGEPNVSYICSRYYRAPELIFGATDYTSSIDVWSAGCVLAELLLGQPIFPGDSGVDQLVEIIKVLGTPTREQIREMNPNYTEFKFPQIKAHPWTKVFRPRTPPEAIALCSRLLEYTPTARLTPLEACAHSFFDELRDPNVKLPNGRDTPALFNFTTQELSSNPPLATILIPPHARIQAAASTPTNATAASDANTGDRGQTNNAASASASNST
The procedure:
as §1, §2, §3

In another experiment the target is Fms(Y969C)(h) (Homo sapiens, UniProt P07333, Y969C). The procedure: as §1, §2, §3
In the next experiment the target is T5, KDR(h) (Homo sapiens, UniProt P35968).
T5 construct: purchased Millipore
T5 sequence (P35968 20-1356): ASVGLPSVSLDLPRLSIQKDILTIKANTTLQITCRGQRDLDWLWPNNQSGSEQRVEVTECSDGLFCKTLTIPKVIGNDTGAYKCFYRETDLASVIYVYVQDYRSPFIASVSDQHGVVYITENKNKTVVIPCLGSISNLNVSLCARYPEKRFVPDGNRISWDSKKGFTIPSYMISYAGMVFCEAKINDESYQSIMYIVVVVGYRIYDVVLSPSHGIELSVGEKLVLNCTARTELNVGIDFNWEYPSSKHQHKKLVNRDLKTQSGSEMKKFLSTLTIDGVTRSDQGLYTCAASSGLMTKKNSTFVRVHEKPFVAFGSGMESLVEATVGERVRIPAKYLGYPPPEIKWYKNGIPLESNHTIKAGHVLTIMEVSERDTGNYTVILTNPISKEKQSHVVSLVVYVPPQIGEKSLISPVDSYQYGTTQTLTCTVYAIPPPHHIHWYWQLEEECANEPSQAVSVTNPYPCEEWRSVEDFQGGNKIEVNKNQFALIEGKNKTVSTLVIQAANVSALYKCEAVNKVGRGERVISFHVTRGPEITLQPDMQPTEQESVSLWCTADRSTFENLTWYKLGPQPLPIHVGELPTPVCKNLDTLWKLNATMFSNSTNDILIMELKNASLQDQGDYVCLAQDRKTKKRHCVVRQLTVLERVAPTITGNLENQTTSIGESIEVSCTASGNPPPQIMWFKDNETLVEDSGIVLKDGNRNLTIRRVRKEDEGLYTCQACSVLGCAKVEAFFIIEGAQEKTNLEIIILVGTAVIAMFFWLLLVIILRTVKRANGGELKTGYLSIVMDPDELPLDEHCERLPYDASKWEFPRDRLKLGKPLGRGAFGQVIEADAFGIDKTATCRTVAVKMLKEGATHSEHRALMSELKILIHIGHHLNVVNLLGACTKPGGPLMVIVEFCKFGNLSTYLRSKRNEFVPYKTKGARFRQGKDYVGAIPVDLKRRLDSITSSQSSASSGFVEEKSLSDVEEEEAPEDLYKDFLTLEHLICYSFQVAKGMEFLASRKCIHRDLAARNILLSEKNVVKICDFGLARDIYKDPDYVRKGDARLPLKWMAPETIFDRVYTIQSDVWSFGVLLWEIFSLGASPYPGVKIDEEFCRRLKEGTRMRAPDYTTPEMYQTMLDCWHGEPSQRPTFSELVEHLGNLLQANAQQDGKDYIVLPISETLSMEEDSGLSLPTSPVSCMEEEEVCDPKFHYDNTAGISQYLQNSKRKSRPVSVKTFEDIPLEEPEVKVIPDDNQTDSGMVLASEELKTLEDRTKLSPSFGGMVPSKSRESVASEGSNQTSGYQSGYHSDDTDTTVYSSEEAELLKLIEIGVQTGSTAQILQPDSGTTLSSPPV
The procedure: as §1, §2, §3

The next experiment concerns the target T6, mTOR(h) (Homo sapiens, UniProt P42345).
T6 construct: purchased Millipore
As for the experimental part:
as §1, §2, §3

A further experiment deals with T7, CHK1(h) (Homo sapiens, UniProt O14757).
T7 sequence (O14757 1-476): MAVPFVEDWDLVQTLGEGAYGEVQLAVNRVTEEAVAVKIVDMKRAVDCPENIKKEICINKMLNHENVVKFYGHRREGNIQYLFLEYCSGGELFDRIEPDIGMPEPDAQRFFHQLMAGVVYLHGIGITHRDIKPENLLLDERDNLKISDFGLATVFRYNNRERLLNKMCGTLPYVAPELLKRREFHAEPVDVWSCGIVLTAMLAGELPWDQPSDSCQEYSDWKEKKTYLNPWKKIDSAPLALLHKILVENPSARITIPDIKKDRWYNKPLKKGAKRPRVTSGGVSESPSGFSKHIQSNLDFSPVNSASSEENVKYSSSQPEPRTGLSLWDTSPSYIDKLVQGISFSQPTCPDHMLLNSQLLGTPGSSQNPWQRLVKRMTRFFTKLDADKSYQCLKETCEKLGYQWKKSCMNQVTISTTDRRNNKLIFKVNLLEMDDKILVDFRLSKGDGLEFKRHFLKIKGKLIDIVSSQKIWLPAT
The procedure:
as §1, §2, §3

A further experiment has as its target T8, JAK2(h) (Homo sapiens, UniProt O60674).
T8 construct: purchased Millipore
The procedure:
as §1, §2, §3

The target in another experiment is PKBβ(h) (Homo sapiens, UniProt P31751). As for the experimental part: as §1, §2, §3
In a further experiment the target is T9, HIPK1(h) (Homo sapiens, UniProt Q86Z02).
T9 construct: purchased Millipore
T9 sequence (Q86Z02 whole entry): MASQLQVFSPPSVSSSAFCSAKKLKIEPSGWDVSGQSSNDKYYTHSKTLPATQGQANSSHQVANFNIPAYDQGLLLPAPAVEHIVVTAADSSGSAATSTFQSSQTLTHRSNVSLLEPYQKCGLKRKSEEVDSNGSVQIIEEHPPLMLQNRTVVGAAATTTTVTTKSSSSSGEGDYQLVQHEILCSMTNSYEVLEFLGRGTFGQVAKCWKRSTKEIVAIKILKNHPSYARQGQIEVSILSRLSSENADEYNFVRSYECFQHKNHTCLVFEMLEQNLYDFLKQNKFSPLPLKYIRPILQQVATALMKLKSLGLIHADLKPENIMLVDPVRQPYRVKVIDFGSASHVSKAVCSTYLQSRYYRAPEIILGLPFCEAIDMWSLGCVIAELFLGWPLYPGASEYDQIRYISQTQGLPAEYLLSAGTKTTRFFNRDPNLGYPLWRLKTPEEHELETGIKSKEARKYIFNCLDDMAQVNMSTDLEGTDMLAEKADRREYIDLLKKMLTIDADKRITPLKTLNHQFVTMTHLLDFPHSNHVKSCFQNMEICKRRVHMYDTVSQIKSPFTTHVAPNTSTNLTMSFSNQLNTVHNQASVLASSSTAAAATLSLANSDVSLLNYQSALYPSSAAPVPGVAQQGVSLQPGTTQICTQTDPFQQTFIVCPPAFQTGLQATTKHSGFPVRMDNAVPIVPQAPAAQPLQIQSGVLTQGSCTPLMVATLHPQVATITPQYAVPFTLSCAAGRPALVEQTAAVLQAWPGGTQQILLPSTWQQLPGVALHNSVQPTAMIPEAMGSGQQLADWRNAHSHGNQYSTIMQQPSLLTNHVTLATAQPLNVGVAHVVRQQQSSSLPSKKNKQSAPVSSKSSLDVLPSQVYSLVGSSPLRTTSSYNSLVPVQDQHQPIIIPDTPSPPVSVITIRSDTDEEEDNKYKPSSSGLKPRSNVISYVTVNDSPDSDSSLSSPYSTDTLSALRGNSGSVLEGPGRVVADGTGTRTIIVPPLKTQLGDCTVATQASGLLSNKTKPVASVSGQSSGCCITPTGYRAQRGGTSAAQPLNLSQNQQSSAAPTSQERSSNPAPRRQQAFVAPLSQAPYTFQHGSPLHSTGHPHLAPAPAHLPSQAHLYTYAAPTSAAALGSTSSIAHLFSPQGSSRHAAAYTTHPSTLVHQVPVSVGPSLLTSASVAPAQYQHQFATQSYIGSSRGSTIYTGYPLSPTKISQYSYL
The procedure: as §1, §2, §3

The next experiment deals with Ret(V804L)(h) (Homo sapiens, UniProt P07949, V804L). As for the experimental part: as §1, §2, §3
The target of the next experiment is T10, MINK(h) (Homo sapiens, UniProt Q8N4C8).
T10 construct: purchased Millipore
T10 sequence (Q8N4C8 whole entry): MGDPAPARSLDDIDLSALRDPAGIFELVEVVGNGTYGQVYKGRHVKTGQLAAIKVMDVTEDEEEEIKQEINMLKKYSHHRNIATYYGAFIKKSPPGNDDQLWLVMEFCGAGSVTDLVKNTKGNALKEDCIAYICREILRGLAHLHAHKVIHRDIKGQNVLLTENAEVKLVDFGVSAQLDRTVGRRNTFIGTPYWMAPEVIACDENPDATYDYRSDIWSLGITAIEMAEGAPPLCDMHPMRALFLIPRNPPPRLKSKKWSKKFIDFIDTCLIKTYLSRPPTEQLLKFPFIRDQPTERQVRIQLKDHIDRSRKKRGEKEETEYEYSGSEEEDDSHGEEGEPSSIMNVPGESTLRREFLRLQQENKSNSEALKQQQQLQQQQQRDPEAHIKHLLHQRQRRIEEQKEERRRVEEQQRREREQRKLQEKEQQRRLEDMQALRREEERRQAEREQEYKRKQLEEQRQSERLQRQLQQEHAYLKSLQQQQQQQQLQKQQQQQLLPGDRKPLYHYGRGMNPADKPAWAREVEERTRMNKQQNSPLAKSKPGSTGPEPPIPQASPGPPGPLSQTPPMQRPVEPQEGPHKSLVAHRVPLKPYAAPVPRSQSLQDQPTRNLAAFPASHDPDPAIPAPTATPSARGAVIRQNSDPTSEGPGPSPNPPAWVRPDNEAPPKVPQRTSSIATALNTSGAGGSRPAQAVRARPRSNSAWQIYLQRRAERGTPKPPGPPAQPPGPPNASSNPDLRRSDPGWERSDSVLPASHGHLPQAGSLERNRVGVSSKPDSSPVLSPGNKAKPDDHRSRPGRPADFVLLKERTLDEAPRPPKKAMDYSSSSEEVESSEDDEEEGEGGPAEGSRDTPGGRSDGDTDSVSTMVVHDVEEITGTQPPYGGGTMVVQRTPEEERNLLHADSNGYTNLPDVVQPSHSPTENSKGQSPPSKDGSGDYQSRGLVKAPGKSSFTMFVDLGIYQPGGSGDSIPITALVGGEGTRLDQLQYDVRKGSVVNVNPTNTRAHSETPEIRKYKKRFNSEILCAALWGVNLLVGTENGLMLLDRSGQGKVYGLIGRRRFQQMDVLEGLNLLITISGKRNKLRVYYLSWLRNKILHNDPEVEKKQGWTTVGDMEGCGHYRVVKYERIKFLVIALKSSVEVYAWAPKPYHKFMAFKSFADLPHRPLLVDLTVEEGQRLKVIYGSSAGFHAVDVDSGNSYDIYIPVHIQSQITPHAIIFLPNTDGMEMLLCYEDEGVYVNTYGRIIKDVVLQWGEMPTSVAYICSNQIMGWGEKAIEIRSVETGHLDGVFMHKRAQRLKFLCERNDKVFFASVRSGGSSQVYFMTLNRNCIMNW
The procedure:
as §1, §2, §3

The next experiment concerns the target T11, MSK1(h) (Homo sapiens, UniProt O75582).
T11 construct: purchased Millipore
The procedure: as §1, §2, §3

T11 sequence (O75582 whole entry): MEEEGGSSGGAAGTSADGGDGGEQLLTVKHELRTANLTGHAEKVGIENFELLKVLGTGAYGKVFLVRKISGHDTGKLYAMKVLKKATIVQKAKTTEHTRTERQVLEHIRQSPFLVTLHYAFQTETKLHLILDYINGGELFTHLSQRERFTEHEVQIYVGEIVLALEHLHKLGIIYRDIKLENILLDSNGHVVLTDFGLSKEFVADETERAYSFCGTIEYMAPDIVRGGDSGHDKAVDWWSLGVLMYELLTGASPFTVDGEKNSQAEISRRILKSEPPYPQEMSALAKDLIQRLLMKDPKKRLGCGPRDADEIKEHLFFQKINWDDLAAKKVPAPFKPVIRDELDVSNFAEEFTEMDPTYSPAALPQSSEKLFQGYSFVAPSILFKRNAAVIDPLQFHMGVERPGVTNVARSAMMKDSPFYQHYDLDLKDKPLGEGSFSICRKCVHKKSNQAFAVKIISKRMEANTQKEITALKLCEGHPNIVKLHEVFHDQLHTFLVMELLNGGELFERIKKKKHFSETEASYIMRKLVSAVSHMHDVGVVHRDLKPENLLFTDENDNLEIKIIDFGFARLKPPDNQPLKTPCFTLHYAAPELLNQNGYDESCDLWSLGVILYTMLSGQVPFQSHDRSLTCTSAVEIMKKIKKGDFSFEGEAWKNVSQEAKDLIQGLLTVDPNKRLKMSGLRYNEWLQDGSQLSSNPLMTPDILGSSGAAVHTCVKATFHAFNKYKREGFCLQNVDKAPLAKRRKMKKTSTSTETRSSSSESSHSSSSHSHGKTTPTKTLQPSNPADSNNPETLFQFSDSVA

In the case of FAKLAARLYRKALARQLGVAA [MMI-0300], the “% activity” value is 82% with NEK6(h); 77% with Itk(h); 59% with IRAK4(h); 205% in the experiment with GSK3β(h); 72% with Fms(Y969C)(h); 101% with KDR(h). Also, the “% activity” value worked out at 91% with mTOR(h); 91% with CHK1(h); 133% with JAK2(h); 84% with PKBβ(h); 74% with HIPK1(h); 79% with Ret(V804L)(h). Also, the figures for the “% activity” value with MINK(h) and with MSK1(h) were 48% and 32%, respectively.
“HRRIKAWLKKIKALARQLGVAA (Mammal) [MMI-0500]”: the “% activity” value worked out at 49% with NEK6(h); 7% with Itk(h); 3% with IRAK4(h); 238% with GSK3β(h); 15% in the experiment with KDR(h); 135% in the experiment with mTOR(h). Further, the “% activity” value in the experiment with CHK1(h) amounted to 65%; with JAK2(h), 49%; with PKBβ(h) it was 21%; with HIPK1(h) it was 47%; in the experiment with Ret(V804L)(h), 20%; with MINK(h) it was 5%. Besides, the “% activity” value in the experiment with MSK1(h) came out at 8%.
For the sequence KAFAKLAARLYRKALARQLGVAA [MMI-0400], the “% activity” value came to 85% in the experiment with NEK6(h); 63% in the experiment with Itk(h); 59% with IRAK4(h); 202% with GSK3β(h); 91% in the experiment with Fms(Y969C)(h); 94% with KDR(h). Moreover, the “% activity” value is 93% with mTOR(h); 87% with CHK1(h); 98% with PKBβ(h); 91% with HIPK1(h); 73% in the experiment with Ret(V804L)(h); 52% with MINK(h). The “% activity” value in the experiment with MSK1(h) was 28%.
For the sequence YARAAARQARAKALARQLGVAA [MMI-0100], the “% activity” value at Itk(h) turned out to be 99%; at Fms(Y969C)(h), 126%; on KDR(h), 100%; at JAK2(h), 89%; on HIPK1(h), 94%; on MINK(h), 96%.
Take “YARAAARQARAKALNRQLGVA (Mammal) [MMI-0200]”: the “% activity” value is reported as 98% with NEK6(h); 98% in the experiment with Itk(h); 110% in the experiment with IRAK4(h); 132% with GSK3β(h); 88% with Fms(Y969C)(h); 110% in the experiment with KDR(h). Also, the “% activity” value with mTOR(h) amounted to 110%; with JAK2(h), 131%; in the experiment with PKBβ(h) it was 250%; with Ret(V804L)(h) it was 100%; with MSK1(h), 50%.

The values above are taken from patent US20150258192A1, “COMPOSITIONS AND METHODS FOR PREVENTING OR TREATING CHRONIC LUNG ALLOGRAFT DYSFUNCTION (CLAD) AND IDIOPATHIC PULMONARY FIBROSIS (IPF)” (priority 2014, published 2015).
